Values of other authors in article PMC7083049.

Target: histone H4 (Homo sapiens) (UniProt P62805)

Kd: 2000 nM
Substance: JMJD2A Tudor domains (from UniProt O75164)
